This is an account of results in paper PMC2120156 (The Journal of Cell Biology, 1994).

This experiment concerns the target filamentous actin (F-actin) from rabbit skeletal muscle (rabbit, UniProt P68135 1-377). Nature of the experiment: co-sedimentation.

B1: gizzard vinculin (intact, 116 kD) (natural protein)
chain: MPVFHTRTIESILEPVAQQISHLVIMHEEGEVDGKAIPDLTAPVSAVQAAVSNLVRVGKETVQTTEDQILKRDMPPAFIKVENACTKLVRAAQMLQADPYSVPARDYLIDGSRGILSGTSDLLLTFDEAEVRKIIRVCKGILEYLTVAEVVETMEDLVTYTKNLGPGMTKMAKMIDERQQELTHQEHRVMLVNSMNTVKELLPVLISAMKIFVTTKNTKSQGIEEALKNRNFTVEKMSAEINEIIRVLQLTSWDEDAWASKDTEAMKRALALIDSKMNQAKGWLRDPNAPPGDAGEQAIRQILDEAGKAGELCAGKERREILGTCKTLGQMTDQLADLRARGQGATPMAMQKAQQVSQGLDLLTAKVENAARKLEAMTNSKQAIAKKIDAAQNWLADPNGGSEGEEHIRGIMSEARKVAELCEEPKERDDILRSLGEISALTAKLSDLRRHGKGDSPEARALAKQIATSLQNLQSKTNRAVANTRPVKAAVHLEGKIEQAQRWIDNPTVDDRGVGQAAIRGLVAEGRRLANVMMGPYRQDLLAKCDRVDQLAAQLADLAARGEGESPQARAIAAQLQDSLKDLKARMQEAMTQEVSDVFSDTTTPIKLLAVAATAPSDTPNREEVFEERAANFENHAARLGATAEKAAAVGTANKTTVEGIQATVKSARELTPQVVSAARILLRNPGNQAAYEHFETMKNQWIDNVEKMTGLVDEAIDTKSLLDASEEAIKKDLDKCKVAMANMQPQMLVAGATSIARRANRILLVAKREVENSEDPKFREAVKAASDELSKTISPMVMDAKAVAGNISDPGLQKSFLDSGYRILGAVAKVREAFQPQEPDFPPPPPDLEHLHLTDELAPPKPPLPEGEVPPPRPPPPEEKDEEFPEQKAGEAINQPMMMAARQLHDEARKWSSKGNDIIAAAKRMALLMAEMSRLVRGGSGNKRALIQCAKDIAKASDEVTRLAKEVAKQCTDKRIRTNLLQVCERIPTISTQLKILSTVKATMLGRTNISDEESEQATEMLVHNAQNLMQSVKETVREAEAASIKIRTDAGFTLRWVRKTPWYQ
As to B1, the “stoichiometry N” value is 0.5 mol vinculin per mol actin.

B2: MBPVinc8 (maltose binding protein fused to vinculin tail residues 809-1063) (domain or fragment)
chain: SDPGLQKSFLDSGYRILGAVAKVREAFQPQEPDFPPPPPDLEHLHLTDELAPPKPPLPEGEVPPPRPPPPEEKDEEFPEQKAGEAINQPMMMAARQLHDEARKWSSKGNDIIAAAKRMALLMAEMSRLVRGGSGNKRALIQCAKDIAKASDEVTRLAKEVAKQCTDKRIRTNLLQVCERIPTISTQLKILSTVKATMLGRTNISDEESEQATEMLVHNAQNLMQSVKETVREAEAASIKIRTDAGFTLRWVRKTP
In the case of B2, the “stoichiometry N” value is 1.18 mol MBPVinc8 per mol actin.
